In assay [1] the target is TCR Vbeta 7.1 chain (H. sapiens rearranged TCR Vbeta 7.1) (human). Description: cell-based or functional assay.
In assay [2] the target is CD4 antigen (T-cell surface glycoprotein CD4 [Homo sapiens]) (human) (UniProt P01730). Description: cell-based or functional assay.
Assay [3] deals with T cells transduced with CART4 (tEGFR high cells). The experiment in a line: In vitro suicide assay (iC9 safety switch, CID-induced apoptosis). It is filed as cell-based, human. Here is the method: CART4 with or without iC9 cells were generated with retroviral transduction with CART4 or CART4 w/o iC9 construct. CAR-T cells were kept expanded for five to seven days after transduction. A […] (CID), the B/B homodimerizer AP20187 (Clontech Laboratories), was added at a various concentration to T cell culture. The induction of apoptosis induced by CID was evaluated 24 hr later using Annexin-v/7-AAD (BD Biosciences) staining and flow cytometry analysis. Survival cells were quantified by counting beads (BD Biosciences). Survival index was calculated as follows: number of living tEGFR^+ cells/number of living tEGFR^+ cells in untreated control samples.
In order to evaluate the efficiency of iC9 safety switch in vitro, a CART4 variation without the iC9 gene (CART4 w/o iC9) was cloned as a control. T cells transduced with CART4 or CART4 without iC9 construct were exposed to increasing concentrations of the CID AP20187 (0.1 nM to 100 nM) for 24 hours. Cell death was accessed by flow cytometry analysis with 7AAD and Annexin-V. The tEGFR-positive percentage in the survived population dropped along with the increasing concentration of the CID. […] Consistent with the observations from other studies, the cells that escape killing were those expressing low levels of the transgene with a 50% reduction in mean fluorescence intensity (MFI) of tEGFR after CID (FIG. 1E). […]

Sequence of TCR Vbeta 7.1 chain (H. sapiens rearranged TCR Vbeta 7.1) (human) (A0A577 whole entry, form in doubt): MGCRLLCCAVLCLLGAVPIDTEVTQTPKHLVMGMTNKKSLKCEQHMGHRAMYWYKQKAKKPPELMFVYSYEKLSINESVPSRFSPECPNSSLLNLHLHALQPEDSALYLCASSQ

Take “CART20 chimeric antigen receptor (anti-CD20 CAR with scFv of monoclonal antibody Leu16)”: in assay [1], the TCR Vβ7.1-positive cells remaining after transduction with control CAR (flow cytometry) came to 1.2%. In assay [2], this compound had a CD4-positive cells remaining after transduction with control CAR (flow cytometry) of 45%.

As for `CC[C@H](C(=O)N1CCCC[C@H]1C(=O)O[C@H](CCc1ccc(OC)c(OC)c1)c1cccc(OCC(=O)NCC(CNC(=O)COc2cccc([C@@H](CCc3ccc(OC)c(OC)c3)OC(=O)[C@@H]3CCCCN3C(=O)[C@@H](CC)c3cc(OC)c(OC)c(OC)c3)c2)CN(C)C)c1)c1cc(OC)c(OC)c(OC)c1` [AP20187], the “reduction in mean fluorescence intensity (MFI) of tEGFR in cells that escape killing” value in assay [3] (after CID) was 50%. Also, the “tEGFR high cells eliminated” value in assay [3] (single 100 nM dose of CID, 24 hours, flow cytometry 7AAD/Annexin-V) stood at 69.1%.

These data come from patent US20240181056A1, “CHIMERIC ANTIGEN RECEPTOR (CAR)-T CELLS” (Imperial College Innovations Limited, priority 2021, published 2024).
